What was measured:
[1] = target: Med15 activator-binding domain 2 (ABD2; residues 277–368) (yeast) (UniProt P19659); test: ITC + fluorescence polarisation
[2] = target: Med15 1–651 Δ239–272, Δ373–483 (KIX123) (yeast) (UniProt P19659); test: fluorescence polarisation
[3] = target: Med15 158–651 Δ239–272, Δ373–483 (ABD123) (yeast) (UniProt P19659); test: fluorescence polarisation

Row | Kd [1] [µM] | increase of affinity over ABD123 [2] [%] | fold higher affinity than the strongest piecemeal interaction [3] [fold] | Substance
1 | 150 |  |  | Gcn4 central activation domain (cAD; residues 101–134) (from UniProt P03069 101-134) (domain or fragment)
2 |  | 30 | 20 | Gcn4 tandem activation domains (tAD; residues 1–134) (from UniProt P03069 1-134) (domain or fragment)
